According to patent publication US20210324108A1:

Molecular target: human 4-1BB on Jurkat-hu4-1BB-NFκB-luc2 reporter cells (human) (UniProt Q07011)
Assay: cell-based or functional assay

Chain of human 4-1BB on Jurkat-hu4-1BB-NFκB-luc2 reporter cells (human) (Q07011 24-255 limits assumed): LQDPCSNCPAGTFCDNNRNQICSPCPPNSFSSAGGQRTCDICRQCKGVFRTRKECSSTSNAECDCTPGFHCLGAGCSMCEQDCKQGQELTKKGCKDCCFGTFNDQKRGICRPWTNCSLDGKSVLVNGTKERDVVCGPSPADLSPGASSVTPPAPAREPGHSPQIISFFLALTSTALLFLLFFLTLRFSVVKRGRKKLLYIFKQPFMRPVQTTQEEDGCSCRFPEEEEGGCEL

EC50 of NFκB-luciferase activation in Jurkat-hu4-1BB-NFκB-luc2 cells with NIH/3T3-huFAP clone 19: 0.02 nM
area under the curve (AUC) of NFκB-luciferase activation in Jurkat-hu4-1BB-NFκB-luc2 cells with NIH/3T3-huFAP clone 19: 53500
Substance: 2+1 bispecific agonistic anti-4-1BB (20H4.9) x anti-FAP (4B9) huIgG1 P329GLALA antibody (bispecific antibody)
